This assay addresses T1, soluble human CD3ε chain (human, UniProt P07766 23-126, limits assumed).
T1 construct: also called human CD3 epsilon chain
The experiment in a line: SPR (Biacore), soluble human CD3ε chain.

Here are results for six molecules from patent US20210388110A1 (published 2021).

T1 sequence (P07766 23-126 limits assumed): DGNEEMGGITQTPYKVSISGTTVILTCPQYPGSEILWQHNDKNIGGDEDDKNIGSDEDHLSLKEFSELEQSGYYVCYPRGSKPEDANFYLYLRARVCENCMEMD

B1: TR01H103-E22Hh/none-Hi-Kn010G3/L0011-k0 (antibody, human IgG1, kappa, L234A L235A, N297A)
heavy: QVQLVESGGGLVQPGRSLRLSCAASGFTFSNAWMHWVRQAPGKGLEWVAQIKDKSQNYATYGAESVKGRFTISRDDSKNSLYLQMNSLKTEDTAVYYCRYVHYAAGYGVDAWGQGTTVTVSSASTKGPSVFPLAPSSKSTSGGTAALGCLVKDYFPEPVTVSWNSGALTSGVHTFPAVLQSSGLYSLSSVVTVPSSSLGTQTYICNVNHKPSNTKVDKKVEPKSCDKTHTCPPCPAPEAAGGPSVFLFPPKPKDTLMISRTPEVTCVVVDVSHEDPEVKFNWYVDGVEVHNAKTKPREEQYASTYRVVSVLTVLHQDWLNGKEYKCKVSNKALPAPIEKTISKAKGQPREPQVYTLPPSRCELTKNQVSLSCAVKGFYPSDIAVEWESNGQPENNYKTTPPVLDSDGSFFLVSKLTVDKSRWQQGNVFSCSVMHEALHNHYTQKSLSLSPDYKDDDDK
chain: EPKSSDKTHTCPPCPAPELLGGPSVFLFPPKPKDTLMISRTPEVTCVVVDVSHEDPEVKFNWYVDGVEVHNAKTKPREEQYNSTYRVVSVLTVLHQDWLNGKEYKCKVSNKALPAPIEKTISKAKGQPREPQVCTLPPSRDELTKNQVSLWCLVKGFYPSDIAVEWESNGQPENNYKTTPPVLDSDGSFFLYSKLTVDKSRWQQGNVFSCSVMHEALHNRYTQKSLSLSP
light: DIVMTQSPLSLPVTPGEPASISCRSSQPLVHSNRNTYLHWYQQKPGQAPRLLIYKVSNRFSGVPDRFSGSGSGTDFTLKISRVEAEDVGVYYCGQGTQVPYTFGQGTKLEIKRTVAAPSVFIFPPSDEQLKSGTASVVCLLNNFYPREAKVQWKVDNALQSGNSQESVTEQDSKDSTYSLSSTLTLSKADYEKHKVYACEVTHQGLSSPVTKSFNRGEC
notes: one-arm antibody (single Fab) with Fab-less hinge-Fc chain Hi-Kn010G3
The term Kd denotes the equilibrium constant for the complex coming apart. B1: binding was put at a Kd of 77.2 nM.

B2: TR01H105-E22Hh/none-Hi-Kn010G3/L0011-k0 (antibody, human IgG1, kappa, L234A L235A, N297A)
heavy: QVQLVESGGGLVQPGRSLRLSCAASGFTFSNAWMHWVRQAPGKGLEWVAQIKDKSQNYATYLAESVKGRFTISRDDSKNSLYLQMNSLKTEDTAVYYCRYVHYAAGYGVDAWGQGTTVTVSSASTKGPSVFPLAPSSKSTSGGTAALGCLVKDYFPEPVTVSWNSGALTSGVHTFPAVLQSSGLYSLSSVVTVPSSSLGTQTYICNVNHKPSNTKVDKKVEPKSCDKTHTCPPCPAPEAAGGPSVFLFPPKPKDTLMISRTPEVTCVVVDVSHEDPEVKFNWYVDGVEVHNAKTKPREEQYASTYRVVSVLTVLHQDWLNGKEYKCKVSNKALPAPIEKTISKAKGQPREPQVYTLPPSRCELTKNQVSLSCAVKGFYPSDIAVEWESNGQPENNYKTTPPVLDSDGSFFLVSKLTVDKSRWQQGNVFSCSVMHEALHNHYTQKSLSLSPDYKDDDDK
chain: EPKSSDKTHTCPPCPAPELLGGPSVFLFPPKPKDTLMISRTPEVTCVVVDVSHEDPEVKFNWYVDGVEVHNAKTKPREEQYNSTYRVVSVLTVLHQDWLNGKEYKCKVSNKALPAPIEKTISKAKGQPREPQVCTLPPSRDELTKNQVSLWCLVKGFYPSDIAVEWESNGQPENNYKTTPPVLDSDGSFFLYSKLTVDKSRWQQGNVFSCSVMHEALHNRYTQKSLSLSP
light: DIVMTQSPLSLPVTPGEPASISCRSSQPLVHSNRNTYLHWYQQKPGQAPRLLIYKVSNRFSGVPDRFSGSGSGTDFTLKISRVEAEDVGVYYCGQGTQVPYTFGQGTKLEIKRTVAAPSVFIFPPSDEQLKSGTASVVCLLNNFYPREAKVQWKVDNALQSGNSQESVTEQDSKDSTYSLSSTLTLSKADYEKHKVYACEVTHQGLSSPVTKSFNRGEC
notes: as for B1
In turn, B2 had a Kd of 69.5 nM.

B3: TR01H108-E22Hh/none-Hi-Kn010G3/L0011-k0 (antibody, human IgG1, kappa, L234A L235A, N297A)
heavy: QVQLVESGGGLVQPGRSLRLSCAASGFTFSNAWMHWVRQAPGKGLEWVAQIKDKSQNYATYTAESVKGRFTISRDDSKNSLYLQMNSLKTEDTAVYYCRYVHYAAGYGVDAWGQGTTVTVSSASTKGPSVFPLAPSSKSTSGGTAALGCLVKDYFPEPVTVSWNSGALTSGVHTFPAVLQSSGLYSLSSVVTVPSSSLGTQTYICNVNHKPSNTKVDKKVEPKSCDKTHTCPPCPAPEAAGGPSVFLFPPKPKDTLMISRTPEVTCVVVDVSHEDPEVKFNWYVDGVEVHNAKTKPREEQYASTYRVVSVLTVLHQDWLNGKEYKCKVSNKALPAPIEKTISKAKGQPREPQVYTLPPSRCELTKNQVSLSCAVKGFYPSDIAVEWESNGQPENNYKTTPPVLDSDGSFFLVSKLTVDKSRWQQGNVFSCSVMHEALHNHYTQKSLSLSPDYKDDDDK
chain: EPKSSDKTHTCPPCPAPELLGGPSVFLFPPKPKDTLMISRTPEVTCVVVDVSHEDPEVKFNWYVDGVEVHNAKTKPREEQYNSTYRVVSVLTVLHQDWLNGKEYKCKVSNKALPAPIEKTISKAKGQPREPQVCTLPPSRDELTKNQVSLWCLVKGFYPSDIAVEWESNGQPENNYKTTPPVLDSDGSFFLYSKLTVDKSRWQQGNVFSCSVMHEALHNRYTQKSLSLSP
light: DIVMTQSPLSLPVTPGEPASISCRSSQPLVHSNRNTYLHWYQQKPGQAPRLLIYKVSNRFSGVPDRFSGSGSGTDFTLKISRVEAEDVGVYYCGQGTQVPYTFGQGTKLEIKRTVAAPSVFIFPPSDEQLKSGTASVVCLLNNFYPREAKVQWKVDNALQSGNSQESVTEQDSKDSTYSLSSTLTLSKADYEKHKVYACEVTHQGLSSPVTKSFNRGEC
notes: as for B1
B3 yielded a Kd of 69.8 nM.

B4: TR01H104-E22Hh/none-Hi-Kn010G3/L0011-k0 (antibody, human IgG1, kappa, L234A L235A, N297A)
heavy: QVQLVESGGGLVQPGRSLRLSCAASGFTFSNAWMHWVRQAPGKGLEWVAQIKDKSQNYATYIAESVKGRFTISRDDSKNSLYLQMNSLKTEDTAVYYCRYVHYAAGYGVDAWGQGTTVTVSSASTKGPSVFPLAPSSKSTSGGTAALGCLVKDYFPEPVTVSWNSGALTSGVHTFPAVLQSSGLYSLSSVVTVPSSSLGTQTYICNVNHKPSNTKVDKKVEPKSCDKTHTCPPCPAPEAAGGPSVFLFPPKPKDTLMISRTPEVTCVVVDVSHEDPEVKFNWYVDGVEVHNAKTKPREEQYASTYRVVSVLTVLHQDWLNGKEYKCKVSNKALPAPIEKTISKAKGQPREPQVYTLPPSRCELTKNQVSLSCAVKGFYPSDIAVEWESNGQPENNYKTTPPVLDSDGSFFLVSKLTVDKSRWQQGNVFSCSVMHEALHNHYTQKSLSLSPDYKDDDDK
chain: EPKSSDKTHTCPPCPAPELLGGPSVFLFPPKPKDTLMISRTPEVTCVVVDVSHEDPEVKFNWYVDGVEVHNAKTKPREEQYNSTYRVVSVLTVLHQDWLNGKEYKCKVSNKALPAPIEKTISKAKGQPREPQVCTLPPSRDELTKNQVSLWCLVKGFYPSDIAVEWESNGQPENNYKTTPPVLDSDGSFFLYSKLTVDKSRWQQGNVFSCSVMHEALHNRYTQKSLSLSP
light: DIVMTQSPLSLPVTPGEPASISCRSSQPLVHSNRNTYLHWYQQKPGQAPRLLIYKVSNRFSGVPDRFSGSGSGTDFTLKISRVEAEDVGVYYCGQGTQVPYTFGQGTKLEIKRTVAAPSVFIFPPSDEQLKSGTASVVCLLNNFYPREAKVQWKVDNALQSGNSQESVTEQDSKDSTYSLSSTLTLSKADYEKHKVYACEVTHQGLSSPVTKSFNRGEC
notes: as for B1
In turn, B4 registered a Kd of 82.6 nM.

B5: TR01H107-E22Hh/none-Hi-Kn010G3/L0011-k0 (antibody, human IgG1, kappa, L234A L235A, N297A)
heavy: QVQLVESGGGLVQPGRSLRLSCAASGFTFSNAWMHWVRQAPGKGLEWVAQIKDKSQNYATYQAESVKGRFTISRDDSKNSLYLQMNSLKTEDTAVYYCRYVHYAAGYGVDAWGQGTTVTVSSASTKGPSVFPLAPSSKSTSGGTAALGCLVKDYFPEPVTVSWNSGALTSGVHTFPAVLQSSGLYSLSSVVTVPSSSLGTQTYICNVNHKPSNTKVDKKVEPKSCDKTHTCPPCPAPEAAGGPSVFLFPPKPKDTLMISRTPEVTCVVVDVSHEDPEVKFNWYVDGVEVHNAKTKPREEQYASTYRVVSVLTVLHQDWLNGKEYKCKVSNKALPAPIEKTISKAKGQPREPQVYTLPPSRCELTKNQVSLSCAVKGFYPSDIAVEWESNGQPENNYKTTPPVLDSDGSFFLVSKLTVDKSRWQQGNVFSCSVMHEALHNHYTQKSLSLSPDYKDDDDK
chain: EPKSSDKTHTCPPCPAPELLGGPSVFLFPPKPKDTLMISRTPEVTCVVVDVSHEDPEVKFNWYVDGVEVHNAKTKPREEQYNSTYRVVSVLTVLHQDWLNGKEYKCKVSNKALPAPIEKTISKAKGQPREPQVCTLPPSRDELTKNQVSLWCLVKGFYPSDIAVEWESNGQPENNYKTTPPVLDSDGSFFLYSKLTVDKSRWQQGNVFSCSVMHEALHNRYTQKSLSLSP
light: DIVMTQSPLSLPVTPGEPASISCRSSQPLVHSNRNTYLHWYQQKPGQAPRLLIYKVSNRFSGVPDRFSGSGSGTDFTLKISRVEAEDVGVYYCGQGTQVPYTFGQGTKLEIKRTVAAPSVFIFPPSDEQLKSGTASVVCLLNNFYPREAKVQWKVDNALQSGNSQESVTEQDSKDSTYSLSSTLTLSKADYEKHKVYACEVTHQGLSSPVTKSFNRGEC
notes: as for B1
Take B5: the Kd came out at 69.1 nM.

B6: TR01H106-E22Hh/none-Hi-Kn010G3/L0011-k0 (antibody, human IgG1, kappa, L234A L235A, N297A)
heavy: QVQLVESGGGLVQPGRSLRLSCAASGFTFSNAWMHWVRQAPGKGLEWVAQIKDKSQNYATYPAESVKGRFTISRDDSKNSLYLQMNSLKTEDTAVYYCRYVHYAAGYGVDAWGQGTTVTVSSASTKGPSVFPLAPSSKSTSGGTAALGCLVKDYFPEPVTVSWNSGALTSGVHTFPAVLQSSGLYSLSSVVTVPSSSLGTQTYICNVNHKPSNTKVDKKVEPKSCDKTHTCPPCPAPEAAGGPSVFLFPPKPKDTLMISRTPEVTCVVVDVSHEDPEVKFNWYVDGVEVHNAKTKPREEQYASTYRVVSVLTVLHQDWLNGKEYKCKVSNKALPAPIEKTISKAKGQPREPQVYTLPPSRCELTKNQVSLSCAVKGFYPSDIAVEWESNGQPENNYKTTPPVLDSDGSFFLVSKLTVDKSRWQQGNVFSCSVMHEALHNHYTQKSLSLSPDYKDDDDK
chain: EPKSSDKTHTCPPCPAPELLGGPSVFLFPPKPKDTLMISRTPEVTCVVVDVSHEDPEVKFNWYVDGVEVHNAKTKPREEQYNSTYRVVSVLTVLHQDWLNGKEYKCKVSNKALPAPIEKTISKAKGQPREPQVCTLPPSRDELTKNQVSLWCLVKGFYPSDIAVEWESNGQPENNYKTTPPVLDSDGSFFLYSKLTVDKSRWQQGNVFSCSVMHEALHNRYTQKSLSLSP
light: DIVMTQSPLSLPVTPGEPASISCRSSQPLVHSNRNTYLHWYQQKPGQAPRLLIYKVSNRFSGVPDRFSGSGSGTDFTLKISRVEAEDVGVYYCGQGTQVPYTFGQGTKLEIKRTVAAPSVFIFPPSDEQLKSGTASVVCLLNNFYPREAKVQWKVDNALQSGNSQESVTEQDSKDSTYSLSSTLTLSKADYEKHKVYACEVTHQGLSSPVTKSFNRGEC
notes: as for B1
With B6, the Kd was 100 nM.
